{
  "source": "paper PMC5266585",
  "origin": "cited, not measured here",
  "key": {"[1]": {"target": "LRP1 principal ligand binding region fragments (Homo sapiens) (UniProt Q07954)"}, "[2]": {"target": "LRP1 CR4-CR5-CR6 (Homo sapiens) (UniProt Q07954)"}},
  "data": [
    {"substance": "PAI-1 (from UniProt P05121)", "values": [
      {"measurement": "Kd", "setting": "[1]", "result": "< 3", "unit": "nM"},
      {"measurement": "Kd", "setting": "[2]", "result": 1.5, "unit": "nM"}
    ]}
  ]
}
